From paper PMC3139607, “Broad-Spectrum Inhibition of HIV-1 by a Monoclonal Antibody Directed against a gp120-Induced Epitope of CD4” (PLoS ONE, 2011)

Target: T1, MAb DB81 (Mus musculus)
T1 construct: IgH V1-39*01, D2-2*01, J3*01; IgK V6-17*01, J2*01; Whole mouse IgG1 kappa; only the variable domains are printed; The first and last residues of each V domain lie under the PCR primers; also called C9 (parent hybridoma well); anti-human CD4-HIV-1-gp120 complex DB81 monoclonal antibody; source: mouse hybridoma (spleen cells of immunized Balb/c mice x P3X63Ag8.653 myeloma); purified from cell …
T1 sequence (VH, as listed by the source, chain 1 of 2): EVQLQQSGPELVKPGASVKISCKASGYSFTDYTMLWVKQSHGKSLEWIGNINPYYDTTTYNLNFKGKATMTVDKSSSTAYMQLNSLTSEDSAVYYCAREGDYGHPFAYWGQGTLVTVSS
T1 sequence (VL, as listed by the source, chain 2 of 2): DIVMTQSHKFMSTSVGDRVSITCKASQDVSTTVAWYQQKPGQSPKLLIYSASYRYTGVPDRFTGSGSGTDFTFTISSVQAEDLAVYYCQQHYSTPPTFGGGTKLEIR
Experiment: SPR; MAb DB81 bound to the chip; synthetic 19-mer CD4 peptides as analytes (Figure 5)
Conditions: both partners purified

B1: human CD4-derived 19-mer peptide GTWTCTVLQNQKKVEFKID (peptide)
peptide: GTWTCTVLQNQKKVEFKID
notes: aa; 180-198 of membrane CD4 from Hominidae (Homo, P. troglodytes); also called human peptide; source: synthetic peptide (solid-phase F-moc, RP-HPLC purified)
B1: binds.
